In paper PMC4030946, “Enantiocomplementary Yarrowia lipolytica Oxidoreductases: Alcohol Dehydrogenase 2 and Short Chain Dehydrogenase/Reductase” (Biomolecules, 2013):

T1: YlSDR (Yarrowia lipolytica, UniProt Q6CEE9)
T1 construct: gene YALI0B16192g; full length, N-terminal His-tag (vector pK470), E. coli BL21 (DE3) Gold, purified
T1 sequence (Q6CEE9 1-278): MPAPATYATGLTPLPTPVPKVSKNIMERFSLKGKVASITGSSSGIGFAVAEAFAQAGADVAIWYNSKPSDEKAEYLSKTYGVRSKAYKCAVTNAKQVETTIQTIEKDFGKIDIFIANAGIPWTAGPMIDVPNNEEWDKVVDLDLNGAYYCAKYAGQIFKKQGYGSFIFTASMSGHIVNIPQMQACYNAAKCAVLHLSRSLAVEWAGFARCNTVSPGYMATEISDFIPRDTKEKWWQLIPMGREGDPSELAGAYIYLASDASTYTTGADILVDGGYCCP


How the values were obtained:
YlSDR = molecular target: T1, YlSDR; assay: chiral GC of product after acetylation; type: biochemical; conditions: reduction to (R)-2-octanol; NADPH 11 mM; citrate 50 mM, pH 5.0, 28 °C; Tween 20
purified protein [1] = substrate: CCCCCCC(C)=O; assay: purified protein; type: biochemical, Yarrowia lipolytica; conditions: reduction, NADH co-substrate, potassium phosphate 50 mM, 40 mM KCl, pH 7.0, 28 °C, Tween 20
purified protein [2] = substrate: CCCCCC[C@H](C)O; assay: purified protein; type: biochemical, Yarrowia lipolytica; conditions: oxidation, NAD+ co-substrate, potassium phosphate 50 mM, 40 mM KCl, pH 8.5, 28 °C, Tween 20
purified protein [3] = substrate: NC(=O)c1ccc[n+]([C@@H]2O[C@H](COP(=O)(O)OP(=O)(O)OC[C@H]3O[C@@H](n4cnc5c(N)ncnc54)[C@H](O)[C@@H]3O)[C@@H](O)[C@H]2O)c1; assay: purified protein; type: biochemical, Yarrowia lipolytica; conditions: oxidation of 10 mM (S)-2-octanol, potassium phosphate 50 mM, 40 mM KCl, pH 8.5, 28 °C, varied: cofactor

Molecule	chiral GC of product after acetylation (YlSDR)	Km (purified protein [1]) [mM]	kcat (purified protein [1]) [s⁻¹]	kcat/Km (purified protein [1]) [M⁻¹ s⁻¹]	Km (purified protein [2]) [mM]	kcat (purified protein [2]) [s⁻¹]	kcat/Km (purified protein [2]) [M⁻¹ s⁻¹]	Km (purified protein [3]) [mM]	kcat (purified protein [3]) [s⁻¹]	kcat/Km (purified protein [3]) [M⁻¹ s⁻¹]
CCCCCCC(C)=O [2-octanone]	(R)-2-octanol was prepared under the following conditions: purified YlSDR in citrate buffer									
YlADH2 (Yarrowia lipolytica CLIB122) (protein) MSAPVIPKTQKGVIFETSGGPLMYKDIPVPVPADDEILVNVKFSGVCHTDLHAWKGDWPLDTKLPLVGGHEGAGVVVAKGKNVDTFEIGDYAGIKWINKACYTCEFCQVAAEPNCPNATMSGYTHDGSFQQYATANAVQAAHIPKNCDLAEIAPILCAGITVYKALKTAAILAGQWVAVTGAGGGLGTLAVQYAKAMGYRVLAIDTGADKEKMCKDLGAEVFIDFAKTKDLVKDVQEATKGGPHAVINVSVSEFAVNQSIEYVRTLGTVVLVGLPAGAVCKSPIFQQVARSIQIKGSYVGNRADSQEAIEFFSRGLVKSPIIIIGLSELEKVYKLMEEGKIAGRYVLDTSK		5.38 ± 0.76	0.56 ± 0.04	100 ± 160	1.42 ± 0.03	1.05 ± 0.52	740 ± 500	17.8 ± 1.26	3.43 ± 0.05	190 ± 70
